Laboratory results published in PMC8703697.

Experiments:
[1] = molecular target: human factor XIIa (human) (UniProt P00748)
human factor XIa (human) = human factor XIa (human) (UniProt P03951)
[2] = molecular target: human plasma Kallikrein (human) (UniProt P03952)
[3] = molecular target: human thrombin (FIIa) (human) (UniProt P00734)
[4] = molecular target: human thrombin (FIIa) (human) (UniProt P00734); remark: listed apart in the source
[5] = molecular target: human thrombin (FIIa) (human) (UniProt P00734); remark: listed apart in the source
[6] = molecular target: human thrombin (FIIa) (human) (UniProt P00734); remark: listed apart in the source

Chain of UniProt P03952 (P03952 20-390, chain 1 of 2): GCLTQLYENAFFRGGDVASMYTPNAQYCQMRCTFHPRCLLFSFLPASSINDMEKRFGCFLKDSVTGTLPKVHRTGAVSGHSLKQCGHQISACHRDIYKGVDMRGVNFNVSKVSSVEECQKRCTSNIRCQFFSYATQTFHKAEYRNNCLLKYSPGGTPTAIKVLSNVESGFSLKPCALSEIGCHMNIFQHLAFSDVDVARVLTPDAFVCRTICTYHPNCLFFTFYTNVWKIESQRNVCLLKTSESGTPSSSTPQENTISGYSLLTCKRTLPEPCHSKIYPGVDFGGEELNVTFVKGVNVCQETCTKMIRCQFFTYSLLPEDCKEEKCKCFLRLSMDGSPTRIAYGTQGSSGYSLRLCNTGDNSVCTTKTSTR
Chain of UniProt P03952 (P03952 391-638, chain 2 of 2): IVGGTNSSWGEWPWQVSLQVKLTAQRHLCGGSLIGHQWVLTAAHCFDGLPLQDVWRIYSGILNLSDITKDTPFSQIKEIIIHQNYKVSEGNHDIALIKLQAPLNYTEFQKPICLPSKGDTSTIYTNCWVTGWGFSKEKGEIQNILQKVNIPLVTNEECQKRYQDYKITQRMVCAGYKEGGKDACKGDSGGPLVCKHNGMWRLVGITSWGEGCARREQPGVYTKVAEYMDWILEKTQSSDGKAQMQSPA
Chain of UniProt P00748 (P00748 20-372, chain 1 of 2): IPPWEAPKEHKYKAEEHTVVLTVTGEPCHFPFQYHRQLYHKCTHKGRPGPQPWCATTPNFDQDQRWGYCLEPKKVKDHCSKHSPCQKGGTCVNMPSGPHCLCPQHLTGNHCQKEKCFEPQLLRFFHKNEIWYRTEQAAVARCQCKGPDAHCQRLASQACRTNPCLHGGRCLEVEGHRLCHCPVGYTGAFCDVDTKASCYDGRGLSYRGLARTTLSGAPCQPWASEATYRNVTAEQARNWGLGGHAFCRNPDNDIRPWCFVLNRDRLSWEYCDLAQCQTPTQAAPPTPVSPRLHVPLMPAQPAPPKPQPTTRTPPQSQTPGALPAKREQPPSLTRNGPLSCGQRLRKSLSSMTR
Chain of UniProt P00748 (P00748 373-615, chain 2 of 2): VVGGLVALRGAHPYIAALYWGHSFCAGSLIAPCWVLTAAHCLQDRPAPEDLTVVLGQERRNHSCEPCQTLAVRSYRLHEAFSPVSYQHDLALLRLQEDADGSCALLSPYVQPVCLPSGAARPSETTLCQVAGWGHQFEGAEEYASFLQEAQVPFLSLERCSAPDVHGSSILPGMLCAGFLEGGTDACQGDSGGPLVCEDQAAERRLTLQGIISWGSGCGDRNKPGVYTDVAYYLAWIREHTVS
Chain of UniProt P03951 (P03951 19-387, chain 1 of 2): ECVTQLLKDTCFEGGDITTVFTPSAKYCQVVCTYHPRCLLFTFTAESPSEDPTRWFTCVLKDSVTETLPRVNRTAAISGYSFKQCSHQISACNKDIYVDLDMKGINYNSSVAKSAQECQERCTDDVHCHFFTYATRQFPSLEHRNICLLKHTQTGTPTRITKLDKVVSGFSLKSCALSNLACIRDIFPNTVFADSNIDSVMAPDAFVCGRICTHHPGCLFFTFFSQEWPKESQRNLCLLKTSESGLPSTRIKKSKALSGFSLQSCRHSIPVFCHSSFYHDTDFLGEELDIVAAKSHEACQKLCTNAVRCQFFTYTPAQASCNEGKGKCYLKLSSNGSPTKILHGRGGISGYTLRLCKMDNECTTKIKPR
Chain of UniProt P03951 (P03951 388-625, chain 2 of 2): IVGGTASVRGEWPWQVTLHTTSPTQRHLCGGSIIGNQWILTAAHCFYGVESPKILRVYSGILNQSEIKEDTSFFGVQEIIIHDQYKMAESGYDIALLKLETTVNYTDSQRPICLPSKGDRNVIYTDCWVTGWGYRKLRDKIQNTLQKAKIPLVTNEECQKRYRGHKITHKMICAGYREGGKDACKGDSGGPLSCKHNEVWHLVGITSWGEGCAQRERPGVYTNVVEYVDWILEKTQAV

Substance “recombinant Dromaserpin (rDromaserpin) (natural protein)” has an inhibition of FXIIa (15 nM) activity on S-2302 with 1 µM and 5 µM rDromaserpin (no effect at 1 µM, ~29% at 5 µM) [1] of 29%, an inhibition of FXIa (3.7 nM) activity (BIOPHEN kit) with 1 µM and 5 µM rDromaserpin (no effect at 1 µM, ~48% at 5 µM) (human factor XIa (human)) of 48% and a decrease of Kallikrein (10 nM) catalytic activity on S-2302 with 1 µM and 5 µM rDromaserpin (~30% and ~76%) [2] of 76%. It also gave a decrease of thrombin (2U) catalytic activity on S-2238 with 1 µM and 5 µM rDromaserpin (87% and 89%), 15 min pre-incubation at 37 °C [3] of 89%, a residual activity of thrombin (2U) on the chromogenic substrate S-2238 with rDromaserpin from 0.02 to 1 µM; IC50 [4] of 0.16 µM and a residual activity of thrombin (2U) with 0.2 µM rDromaserpin and heparin from 0 to 7.2 µM (48.11% without heparin, 12.5% at 2.4 µM heparin, less acceleration from 5.6 µM) [5] of 48.1%. It also gave a reduction of thrombin-induced aggregation of washed human platelets; 10 µM rDromaserpin pre-incubated 10 min at 37 °C with thrombin [6] of 88.2%.
